Positions count from the first letter of the chain named. In names and notes the source's numbering stands. Several values for one entry are separate records, joined by “and”; a condition that tells them apart may be missing. Equal entries are not always repeated.
T1: IL-18 receptor alpha chain (UniProt Q13478 19-329, limits assumed)
T1 construct: also called IL-18Rα; IL-18 Rα
T1 sequence (looked up): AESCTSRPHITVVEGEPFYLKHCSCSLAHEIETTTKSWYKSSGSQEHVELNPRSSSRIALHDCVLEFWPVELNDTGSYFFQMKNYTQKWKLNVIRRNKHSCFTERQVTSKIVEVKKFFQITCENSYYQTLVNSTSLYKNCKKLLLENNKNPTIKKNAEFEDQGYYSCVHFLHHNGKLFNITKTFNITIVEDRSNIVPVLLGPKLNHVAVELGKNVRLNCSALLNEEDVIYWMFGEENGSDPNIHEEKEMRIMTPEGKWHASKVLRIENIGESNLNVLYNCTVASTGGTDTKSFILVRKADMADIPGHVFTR

B1: human IL-18 C38S, C68D, D157C (SEQ ID NO:8) (ligand)
chain: YFGKLESKLSVIRNLNDQVLFIDQGNRPLFEDMTDSDSRDNAPRTIFIISMYKDSQPRGMAVTISVKDEKISTLSCENKIISFKEMNPPDNIKDTKSDIIFFQRSVPGHDNKMQFESSSYEGYFLACEKERDLFKLILKKEDELGDRSIMFTVQNEC
notes: Non-pegylated substitution mutant; also called IL-18 C157 (C38S, C68D, D157C)
B2: human IL-18 C38S, C68S, L144C (SEQ ID NO:9) monopegylated at C144 with 30K PEG (ligand)
chain: B1 chain with D68S, L144C, C157D
modifications: methoxy polyethylene glycol maleimide, 30,000 Da, on Cys 144
notes: also called IL-18 C144PEG30K
B3: human IL-18 C38S, C68S, D157C (SEQ ID NO:10) monopegylated at C157 with 20K PEG (ligand)
chain: B1 chain with D68S
modifications: methoxy polyethylene glycol maleimide, 20,000 Da, on Cys 157
notes: also called IL-18 C157PEG20K; 157C-20K
B4: human IL-18 C38S, C68D, D157C (SEQ ID NO:8) monopegylated at C157 with 20K PEG (ligand)
chain: B1 chain
modifications: methoxy polyethylene glycol maleimide, 20,000 Da, on Cys 157
notes: as for B3
B5: human IL-18 C38S, C68D, D157C (SEQ ID NO:8) monopegylated at C157 with 30K PEG (ligand)
chain: B1 chain
modifications: methoxy polyethylene glycol maleimide, 30,000 Da, on Cys 157
notes: also called IL-18 C157PEG30K; 157C-30K
B6: human IL-18 C38S, C68D, L144C (SEQ ID NO:7) monopegylated at C144 with 20K PEG (ligand)
chain: B1 chain with L144C, C157D
modifications: methoxy polyethylene glycol maleimide, 20,000 Da, on Cys 144
notes: also called IL-18 C144PEG20K
B7: human IL-18 C38S, C68S, D157C (SEQ ID NO:10) monopegylated at C157 with 30K PEG (ligand)
chain: B1 chain with D68S
modifications: methoxy polyethylene glycol maleimide, 30,000 Da, on Cys 157
notes: as for B5
B8: human IL-18 C38S, C68S, L144C (SEQ ID NO:9) monopegylated at C144 with 20K PEG (ligand)
chain: B1 chain with D68S, L144C, C157D
modifications: methoxy polyethylene glycol maleimide, 20,000 Da, on Cys 144
notes: also called IL-18 C144PEG20K
B9: human IL-18 C38S, C68D, L144C (SEQ ID NO:7) (ligand)
chain: B1 chain with L144C, C157D
notes: Non-pegylated substitution mutant; also called IL-18 C144 (C38S, C68D, L144C)
B10: human IL-18 C38S, C68D, L144C (SEQ ID NO:7) monopegylated at C144 with 40K PEG (ligand)
chain: B1 chain with L144C, C157D
modifications: methoxy polyethylene glycol maleimide, 40,000 Da, on Cys 144
notes: also called IL-18 C144PEG40K
B11: human IL-18 C38S, C68S, L144C (SEQ ID NO:9) (ligand)
chain: B1 chain with D68S, L144C, C157D
notes: Non-pegylated substitution mutant; also called IL-18 C144 (C38S, C68S, L144C)
B12: human IL-18 C38S, C68S, D157C (SEQ ID NO:10) (ligand)
chain: B1 chain with D68S
notes: Non-pegylated substitution mutant; also called IL-18 C157 (C38S, C68S, D157C)
B13: human IL-18 C38S, C68D, D157C (SEQ ID NO:8) monopegylated at C157 with 40K PEG (ligand)
chain: B1 chain
modifications: methoxy polyethylene glycol maleimide, 40,000 Da, on Cys 157
notes: also called IL-18 C157PEG40K; 157C-40K
B14: human IL-18 C38S, C68D, L144C (SEQ ID NO:7) monopegylated at C144 with 30K PEG (ligand)
chain: B1 chain with L144C, C157D
modifications: methoxy polyethylene glycol maleimide, 30,000 Da, on Cys 144
notes: also called IL-18 C144PEG30K

What was measured:
[1] = molecular target: T1, IL-18 receptor alpha chain; assay: SPR (BIAcore)
[2] = molecular target: T2, IL-18 receptor (heterodimeric surface receptor composed of α- and β-chains) on KG-1 cells; assay: cell-based or functional assay
[3] = molecular target: T2, IL-18 receptor (heterodimeric surface …); assay: cell-based or functional assay; remark: listed apart in the source

Binder | Kd [1] [µM] | NF-κB bioassay, reduction in potency relative to the native IL-18 [2] [fold] | NF-κB KG-1 EC50 [3] | NF-κB KG-1 EC50 (ng/ml), av. [3] [ng/mL]
B1 | 0.196 | ~10 | 0.004 µg/mL | 4
B2 | 8.26 |  | 0.044 µg/mL | 44
B3 | 5.5 |  | 0.049 µg/mL and 0.059 µg/mL | 54
B4 | 5.16 |  |  | 37.3
B5 | 5.33 |  | 0.094 µg/mL and 0.043 µg/mL | 68.5
B6 | 2.69 |  | 0.058 µg/mL and 0.066 µg/mL and 0.042 µg/mL | 55.3
B7 | 6.34 |  | 0.047 µg/mL | 47
B8 | 5.19 |  | 0.071 µg/mL and 0.092 µg/mL | 81.5
B9 | 0.222 | ~10 | 0.0035 µg/mL and 0.0016 µg/mL | 2.6
B10 | 5.35 |  | 0.271 µg/mL and 0.33 µg/mL | 300
B11 | 0.534 |  |  | 2.6
B12 | 0.41 |  |  | 2
B13 | 22.9 |  |  | 278
B14 | 4.26 |  | 0.038 µg/mL | 38
